Test results reported in US20120094935A1.

What was measured:
[1] = molecular target: N-terminally His-tagged form of human TNFα (residues 6-157, numbered as in PDB entry 1TNF), soluble TNFα trimer (human) (UniProt P01375); assay: crystal structure, SC program in CCP4
[2] = molecular target: N-terminally His-tagged form of human TNFα (residues 6-157, numbered as in PDB entry 1TNF), soluble TNFα trimer (human) (UniProt P01375); assay: crystal structure, AREAIMOL with 1.4 Å probe

UniProt P01375, sequence (P01375 other isoform, or with tags, fused parts or gaps limits assumed): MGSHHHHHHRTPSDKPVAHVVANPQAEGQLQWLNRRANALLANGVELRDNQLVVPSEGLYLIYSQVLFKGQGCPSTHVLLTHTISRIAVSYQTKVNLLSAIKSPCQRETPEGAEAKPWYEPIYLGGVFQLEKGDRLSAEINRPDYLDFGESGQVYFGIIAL

Substance: C-terminally His-tagged version of Yaba-like disease virus (YLDV) 2L lacking six C-terminal residues
- shape complementarity index SC [1]: 0.72
- buried surface area contributed by 2L [2]: 1030 Å^2
- total buried surface area at the 2L-TNFα interface [2]: 2060 Å^2
